In publication PMC10932818 (Cancer immunology research, 2024):

Target: recombinant Fc-tagged extracellular domain of LILRB3 (LILRB3-ECD) (human, UniProt O75022 24-443, glycosylated (production from mammalian NS0 cells))
Assay: BLI

Sequence of recombinant Fc-tagged extracellular domain of LILRB3 (LILRB3-ECD) (O75022 24-443): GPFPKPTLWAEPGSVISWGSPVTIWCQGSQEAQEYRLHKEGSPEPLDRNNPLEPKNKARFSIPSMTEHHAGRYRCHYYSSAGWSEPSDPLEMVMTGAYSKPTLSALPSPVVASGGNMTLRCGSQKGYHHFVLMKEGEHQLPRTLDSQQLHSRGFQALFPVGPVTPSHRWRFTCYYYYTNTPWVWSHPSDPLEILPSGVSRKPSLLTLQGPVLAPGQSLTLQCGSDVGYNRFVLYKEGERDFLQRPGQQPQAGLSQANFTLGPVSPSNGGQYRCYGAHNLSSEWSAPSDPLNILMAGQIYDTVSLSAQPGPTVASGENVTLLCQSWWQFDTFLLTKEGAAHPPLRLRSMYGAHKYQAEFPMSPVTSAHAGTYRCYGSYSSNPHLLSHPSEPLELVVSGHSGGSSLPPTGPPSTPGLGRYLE

B1: recombinant human galectin-4 (Galectin-4-His) (natural protein, UniProt P56470 1-323, looked up)
chain: MAYVPAPGYQPTYNPTLPYYQPIPGGLNVGMSVYIQGVASEHMKRFFVNFVVGQDPGSDVAFHFNPRFDGWDKVVFNTLQGGKWGSEERKRSMPFKKGAAFELVFIVLAEHYKVVVNGNPFYEYGHRLPLQMVTHLQVDGDLQLQSINFIGGQPLRPQGPPMMPPYPGPGHCHQQLNSLPTMEGPPTFNPPVPYFGRLQGGLTARRTIIIKGYVPPTGKSFAINFKVGSSGDIALHINPRMGNGTVVRNSLLNGSWGSEEKKITHNPFGPGQFFDLSIRCGLDRFKVYANGQHLFDFAHRLSAFQRVDTLEIQGDVTLSYVQI
**Q.** How did the Kd turn out when B1 was run?
**A.** 44 nM
